{"source": "patent US20190324022", "about": "“METHODS AND SYSTEMS FOR IDENTIFYING CANDIDATE NUCLEIC ACID AGENT” (APTITUDE MEDICAL SYSTEMS, INC., published 2019)", "key": {"TNF-alpha [1]": {"target": "T1, TNF-alpha (Homo sapiens, UniProt P01375 P01375:77-233)", "T1 sequence (P01375 77-233, one chain of several)": "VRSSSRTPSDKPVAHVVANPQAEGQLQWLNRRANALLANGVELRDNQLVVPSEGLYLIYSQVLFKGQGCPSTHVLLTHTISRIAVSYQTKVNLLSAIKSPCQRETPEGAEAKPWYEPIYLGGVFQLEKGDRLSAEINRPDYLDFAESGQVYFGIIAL", "assay": "flow; PBSMCT buffer (2.5 mM MgCl2, 1 mM CaCl2), room temperature, 3 h; 0.27 nM in serum", "conditions": "tags: biotinylated; R&D Systems; chain copies: 3 (inferred)", "method": "(§1) MyOne carboxylic acid magnetic particles were coated with amino-modified candidate nucleic acid agents S01, B01, or VR11 (a previously published TNF-α candidate nucleic acid agent), or with mAb11 antibody (a commercial TNF-α antibody). […] The unbound TNF-α was washed away with PBSMCT, after which streptavidin-conjugated Alexa Fluor 488 was introduced and incubated for 15 minutes to label the bound TNF-α. The particles were washed with PBSMCT and median fluorescence intensities were quantified via FACS.\n(§2) Sequences and relative affinities of all candidate nucleic acid agents are shown in the methods above."}, "TNF-alpha [2]": {"target": "T1, TNF-alpha", "assay": "flow; PBSMCT buffer, room temperature, 3 h", "conditions": "tags: biotinylated; R&D Systems; chain copies: 3 (inferred)", "method": "as §1, §2"}, "[3]": {"target": "NGAL (Neutrophil Gelatinase-Associated Lipocalin) (Homo sapiens, UniProt P80188 P80188:21-198)", "sequence (P80188 21-198, one chain of several)": "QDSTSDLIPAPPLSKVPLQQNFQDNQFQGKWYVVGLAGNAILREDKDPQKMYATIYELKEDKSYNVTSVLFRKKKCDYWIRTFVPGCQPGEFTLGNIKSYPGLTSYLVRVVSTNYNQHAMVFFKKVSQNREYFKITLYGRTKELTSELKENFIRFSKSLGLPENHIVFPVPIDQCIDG", "assay": "flow; PBSMCT buffer; 1.28 nM in 10% human serum", "conditions": "tags: His-Tag; R&D Systems"}, "[4]": {"target": "T2, HRP-2 (Histidine-Rich Protein 2) (UniProt P05227 P05227:22-332)", "T2 sequence": "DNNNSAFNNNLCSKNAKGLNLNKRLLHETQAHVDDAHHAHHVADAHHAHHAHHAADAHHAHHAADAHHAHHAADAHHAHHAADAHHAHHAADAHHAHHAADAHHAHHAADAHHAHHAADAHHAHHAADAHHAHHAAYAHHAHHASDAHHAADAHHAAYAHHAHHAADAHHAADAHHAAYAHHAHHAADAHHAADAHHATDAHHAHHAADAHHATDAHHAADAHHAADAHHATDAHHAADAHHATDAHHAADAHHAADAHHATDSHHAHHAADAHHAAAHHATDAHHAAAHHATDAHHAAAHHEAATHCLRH", "assay": "flow; PBSMCT buffer; 0.124 nM in 10% human serum", "conditions": "tags: His-Tag; Fitzgerald Industries International"}}}
{"binder": "S01 (ssDNA, 5'-amino, coupled to magnetic particles) DNA: ATCCAGAGTGACGCAGCATGCTTAAGGGGGGGGCGGGTTAAGGGAGTGGGGAGGGAGCTGGTGTGGACACGGTGGCTTAGT", "values": [{"measurement": "Kd", "setting": "TNF-alpha [1]", "value": 0.19, "unit": "nM"}]}
{"binder": "B01 (ssDNA, 5'-amino, coupled to magnetic particles) DNA: ATCCAGAGTGACGCAGCAGGTTAAGGTGTAGGTCCGGGTGGGGGGGTGGGTTGGGGGACTGGTGGACACGGTGGCTTAGT", "values": [{"measurement": "Kd", "setting": "TNF-alpha [2]", "value": 0.35, "unit": "nM"}]}
{"binder": "NGAL-05 (ssDNA, immobilized on magnetic particles) DNA: GAATTCCGCCCTCGTCCCATCTCGGCTTGGTATGGCGGAGCTGGATAGTATAGTCGGAACACCAACCGAGAACGGAATTC", "values": [{"measurement": "Kd", "setting": "[3]", "value": 0.92, "unit": "nM"}]}
{"binder": "HRP-2-702 (ssDNA, immobilized on magnetic particles) DNA: ATCCAGAGTGACGCAGCATTAAATAGGGGTTTGGCTTTGGGTCTGGCATATAGGAACAAGTTTGGACACGGTGGCTTAGT", "values": [{"measurement": "Kd", "setting": "[4]", "value": 0.128, "unit": "nM"}]}
